Biological target: TetR (Tet Repressor) (UniProt P04483)
Experiment: not stated in material (in vitro binding)
Conditions: not given in the material held (binding assay methods absent)

Sequence of TetR (Tet Repressor) (P04483 whole entry): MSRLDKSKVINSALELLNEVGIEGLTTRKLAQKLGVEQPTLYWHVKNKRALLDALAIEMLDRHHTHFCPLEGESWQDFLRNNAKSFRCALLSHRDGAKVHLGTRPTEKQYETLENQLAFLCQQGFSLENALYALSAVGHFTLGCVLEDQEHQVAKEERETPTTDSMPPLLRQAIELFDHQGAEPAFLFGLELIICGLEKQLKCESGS

## GGGCUUGUUACCAGACAACCAUUACUUAUCCUAUCAAUCUGCCUUAUCCAAAGAUCCAAACGAAAAGAGAGACCACAUGGUCUUGUUAGAAUUUGUUACUUAAUCUAGAAAUUAUCUAGGAUCCAGGCAGAGAAAGGUCGAUACGGACGGAAUGUGAUGGCCUGGAUCCAACACAAAACUCGAGAACAUCCCGGGAAAAUCUAGAAUUCCUUCGAUAGAUCAAUUUUUUUCUUUUCUCUUUCCCCAUCCUUUACGCUAAAAUAAUAGUUUAUUUUAUUUUUUGAAUAUUUUUUAUUUAUAUACGUAUAUAUAGACUAUUAUUUAUCUUUUAAUGAUU [3'UTR + aptamer (vYFPΔ-5-1.2 bases 613-946)]
  Kd: 800 pM

From article PMC3466194
